The values that follow come from the nanobody polyreactivity screen of Harvey et al. (2022).

The nature of the data set: yeast display, Sf9 membrane polyspecificity reagent, FACS + sequencing; frameworks hold sequencing errors. An outline of the steps:
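Nanobodies came from a synthetic yeast display library in Saccharomyces cerevisiae BJ5465, induced with galactose for 36–48 hours and stained for 1 hour at 4 °C with 10% biotinylated, detergent-solubilized Sf9 membrane reagent. Cells were enriched on streptavidin microbeads and then FACS-sorted, with low and high (top ~1%) gates set on anti-HA fluorescence for expression and streptavidin fluorescence for reagent binding. Each polyreactivity label reflects the gate a clone came from. Genes were amplified by colony PCR, sequenced by MiSeq 2 × 250 and filtered by CDR length.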
For “QVQLVESGGGLVQAGGSLRLSCAASGRILGGNAMGWYRQAPGKERELVAAITSGGTTNYADSVKGRFTISRDNAKNTVYLQMNSLKPEDTAVYYCNADWTDGDWADMDYWGQGTQVTVSS”, the “polyreactivity (PSR sort gate)” value was “low polyreactivity”. Then “QVQLVESGGGLVQAGGSLRLSCAASGRILIGYTMGWYRQAPGTERELVARNNYSGGSTYYADSVKGRFTISRDISKNTVYLQMNSLKPEESGDYYCAADVRRGYYTWPPRRVYYWGQGTQVTVSS”, with “high polyreactivity”; and “QVQLVESGGGLVQAGGSLRLSCAASGRILIHYAMRWYRQAPGKERELVAAIDNSVSTYYADSVKGRFTISRDNAKNTVYLQMNSLKPEDTAVYYCAADHWTHSVWGSGYKYYYWGQGTQVTVSS”, with “high polyreactivity”; and “QVQLVESGGGLVQAGGSLRLSCAASGRILKSYAMGWCRHAPGKERELVAAIRSGGSTYYADSVKGRFTISRDNAKNTVYLQMYSLKPEDTAVYYCNRVTRTWKVNYHYWGQGTQVTVSS”, with “high polyreactivity”. Then “QVQLVESGGGLVQAGGSLRLSCAASGRILKWYAMGWYRQAPGKERELVAAISARGGSTFYADSVKGRFTISRDNAKNTVYLQMNSLKPEDTAVYYCNTYYRGGPYDVAYDYWGQGTEVTVSS”, with “high polyreactivity”; and “QVQLVESGGGLVQAGGSLRLSCAASGRILLGNVMGWYRQAPGKERELVAAISIGGNTNYADSVKGRFTISRDNANNTVYLQMNSLKPEDTAVYYCNARSLVFPITFWEYDYWGEGTQVTVSS”, with “low polyreactivity”; and “QVQLVESGGGLVQAGGSLRLSCAASGRILNYNAMGWYRQAPGKERELVAAITSSGGSTYYADSVKGRFTISRDNAKNTVYLQMNSLKPEDTAVYYCNALITYSSDYWGQGTQVTVSS”, with “low polyreactivity”. In the case of “QVQLVESGGGLVQAGGSLRLSCAASGRILPFNAMGWYRQAPGKERELVAAIRWRGSSTYYADSVKGRFTISRDIAKNTVYLQMNSLKPEDTAVYYCAAPSSVRGKVISAYYGYWGQGTQVTVSS”, the “polyreactivity (PSR sort gate)” value is “high polyreactivity”. As to “QVQLVESGGGLVQAGGSLRLSCAASGRILPFYAMGWYRQAPGKERELVATISWTSDSTYYADSVKGRFTISRDNAKNTVYLQMNSLKPEDTAVYYCAREYTYTYASTVIYDHWGQGTQVTVSS”, the “polyreactivity (PSR sort gate)” value is listed as “low polyreactivity”.

In the case of “QVQLVESGGGLVQAGGSLRLSCAASGRILRGNAMGWYRQAPGKERELVADINYSDGSTYYADSVKGRFTISRDNAKNTVYLQMNSLKPEDTAVYYCAADLRITSYNSWGHGTQVTVSS”, the “polyreactivity (PSR sort gate)” value is “low polyreactivity”.

For “QVQLVESGGGLVQAGGSLRLSCAASGRILRRNTMGWYRQAPGKERELVATITRGGGNTYADSVKGRFTISRDNAKNTVYLQMNSLKPEDTAVYYCARAYGSYDYWGQGTQVTVSS”, the “polyreactivity (PSR sort gate)” value is on record as “high polyreactivity”.

Consider “QVQLVESGGGLVQAGGSLRLSCAASGRILRSYAMGWYRQAPGKERELVAAISWRGGSTYYADSVKGRFTISRDNAKNTVYLQMNSLKPEDTAVYYCAKRSYYPARYDYWGQGTQVTVSS”, for which the “polyreactivity (PSR sort gate)” value is “high polyreactivity”. In the case of “QVQLVESGGGLVQAGGSLRLSCAASGRILSEYPMGWYRQARGKERELVAAITISDGSTYYADSVKGRFTISRDNAKNTVYLQMNSVNPDDTAVYYCAADSYDYNPAYLFCYKYYYWGQGSQVTVSS”, the “polyreactivity (PSR sort gate)” value is “low polyreactivity”. For “QVQLVESGGGLVQAGGSLRLSCAASGRILSVYAMGWYRQAPGKERELVAAIEYSGGSTNYADSVKGRFTISRDNAKHTVYLQMNSLKPEDTAVYYCNREGGAIAWRYLLEYLYSWGQGTQVTVSS” the value was “low polyreactivity”; for “QVQLVESGGGLVQAGGSLRLSCAASGRILSYYAMGWYRQAPGKERELVATISASGGSTFYADSVKGRFTISRDNAKNTVYLQMNSLKPEDTAVYYCNAYWGRRVQRDYWGQGTQVTVSS”, “high polyreactivity”. Then “QVQLVESGGGLVQAGGSLRLSCAASGRILTFYGLGWYRQAPGKERELVAAISNGGSTYYADSVKGRFTISRDNAKNTVYLQMNSLKPEDTAVYYCAKRILTAPRRNSGYDYWGQGTQVTVSS”, with “low polyreactivity”; and “QVQLVESGGGLVQAGGSLRLSCAASGRILVPNAMGWYRQAPGKERELVATITSSGSTYADSVKGRFTISRDNAKNTVYLQMNSLKPEDTAVYYCAAKYTGSFINYGLWGTYFEDDYWGQGTQVTVSS”, with “low polyreactivity”; and “QVQLVESGGGLVQAGGSLRLSCAASGRILVYYAMGWYRQAPGKEREFVAAISQRGGSTYYADSVKGRFTISRDNAKNTVYLQMNSLKPEDTAVYYCATRPIQYRRGYDYWGQGTQVTVSS”, with “high polyreactivity”.

Consider “QVQLVESGGGLVQAGGSLRLSCAASGRILWSYAMGWYRQAPGKERELVASISGRGGSTYYADSVKGRFTISRDNAKNTVYLQMNSLKPEDTAVYYCAAYRLRFWSMDYWGQGTQVTVSS”, for which the “polyreactivity (PSR sort gate)” value is recorded as “high polyreactivity”. Then “QVQLVESGGGLVQAGGSLRLSCAASGRILYGYAMGWYRQAPGTERELVASLSSGGRTYYADSVKGRFTISRDNAKNTVYLQMNSLKPEDTAVYYCAAVAYGNWYRYYYWGQGTQVTVSS”, with “high polyreactivity”. Take “QVQLVESGGGLVQAGGSLRLSCAASGRILYGYVMGWYRQAPGKERELVAAISWSGARTYYADSVKGRFTISRDNAKNTVYLQMNSLKPEDTAVYYCAARVPSWKYDYWGQGTQVTVSS”: the “polyreactivity (PSR sort gate)” value was “high polyreactivity”.

In the case of “QVQLVESGGGLVQAGGSLRLSCAASGRILYHYAMGWYRQAPGKERELVAAITFSGDTTYYADSVKGRFTISRDNAKNTVYLQMNSLKPVDTAVYYCNTVYYWNYVSRLYDYWGQGTQVTVSS”, the “polyreactivity (PSR sort gate)” value is “high polyreactivity”. Then “QVQLVESGGGLVQAGGSLRLSCAASGRILYLNAMGWYRQAPGKERELVAAITRRAGSTRYADSVKGRFTISRDNAKNTVYLQMNSLKPEDTAVYYCAVAYYRNRMDYWGQGTQVTVSS”, with “high polyreactivity”; and “QVQLVESGGGLVQAGGSLRLSCAASGRILYPYAMGWYRQAPGKERELVASISWSGGRTYYADSVKGRFTISRDHAKYTVYLQMNSLKPEDTAVYYCAATFSYSSYIYDYWGQGTQVTVSS”, with “high polyreactivity”; and “QVQLVESGGGLVQAGGSLRLSCAASGRILYQYAMGWYRQAPGKERELVASISGRSGRTRYADSVKGRFTISRDNAKNTVYLQMNSLKPEDTAVYYCNAGSSVLKYDYWGQGTQVTVSS”, with “low polyreactivity”. As to “QVQLVESGGGLVQAGGSLRLSCAASGRILYQYAMGWYRQAPGKVRELVASISGRSGRTRYADSVKGRFTISRDIAKNTVSLQMNSLKPEDTAVYYCYAGTSVLKYDYWGQGTQVTVSS”, the “polyreactivity (PSR sort gate)” value is “low polyreactivity”. Then “QVQLVESGGGLVQAGGSLRLSCAASGRILYSYAMGWYRQAPGKEREFVAAIRRSGGSTYYADSVKGRFSISRDNAKNTVYLQMNSLKPEDTAVYYCAAGRRYSGSYDYWGQGTQVTVSS”, with “high polyreactivity”. As for “QVQLVESGGGLVQAGGSLRLSCAASGRILYSYAMGWYRQAPGKERELVAAISSTGSTYYADSVKGRFTISRDNAKNTVYLQMNSLKPEDTAVYYCAATFYPYQVHHYYYWGQGTQVTVSS”, the “polyreactivity (PSR sort gate)” value was “low polyreactivity”. Regarding “QVQLVESGGGLVQAGGSLRLSCAASGRILYTYAMGWYRQAPGKERELVASIRSSGGITYYADSVKGRFTISRDNAKNTVYLQMNSLKPEDTAVYYCNAPYLVGTGPNGEYDYWGQGTEVTVSS”, the “polyreactivity (PSR sort gate)” value is reported as “high polyreactivity”. Then “QVQLVESGGGLVQAGGSLRLSCAASGRILYWYTMGWYRQAPGKERELVAAITDSVGRTYYADSVKGRFTISRDNAKNTVYLQMNSLKPEDTAVYYCNADPYAQQPYSYYYGYDYWGQGTQVTVSS”, with “low polyreactivity”. Then “QVQLVESGGGLVQAGGSLRLSCAASGRILYYYAMGWYRQAPGKERELVAAISGSAGTTYYADSVKGRFTISRDNAKNPVYLQMNSLKPEDTAVYYCSKYYPYIQADYGYDYWGQGTQVSVSS”, with “low polyreactivity”; and “QVQLVESGGGLVQAGGSLRLSCAASGRILYYYAMGWYRQAPGKERELVAGITTDDSTNYADSVKGRFTISRDNAKNTVYFQMNSLKPEDTAVYYCAAKYVHGEYDYWGQGTQVTVSS”, with “low polyreactivity”; and “QVQLVESGGGLVQAGGSLRLSCAASGRIQDINAMGWYRQAPGKERELVAAISYGGGTTYYADSVKGRFTISRDNAKNTVYLQMNSLKPEDTAVYYCAKDGYFPEFDYWGQGTQVTVSS”, with “high polyreactivity”.

As for “QVQLVESGGGLVQAGGSLRLSCAASGRIRFNVMGWYRQAPGKERELVAAITGGGTTYYADSVKGRFTISRDNAKNTVYLQMNSLKPEDTAVYYCAARALYSRINQIPSYYWGQGTQVTVSS”, the “polyreactivity (PSR sort gate)” value was “high polyreactivity”. For “QVQLVESGGGLVQAGGSLRLSCAASGRISAFNSMGWYRQAPGKERELVAAINVSGGNTYYADSVKGRFTISRDNAKNTFFLQMNSLKPEDTAVYYCAAERRRWGLDYYYWGQGTQVTVSS” the value was “high polyreactivity”.

With “QVQLVESGGGLVQAGGSLRLSCAASGRISARYVMGWYRQAPGKERELVAAISWSGDRTYYADSVKGRFTISRDNAKNTVYLQMNSLKPEDTAVYYCATGFYSRLAYGYGYWGQGSQVTVSS”, the “polyreactivity (PSR sort gate)” value is recorded as “high polyreactivity”. As for “QVQLVESGGGLVQAGGSLRLSCAASGRISASYAMGWYRQAPGKERELVAAITGSGGSTYYADSVKGRFTISRDNAKNTVYVQMNSLNPEDTAVYYCAADPGWAWWVLNYWVQGTQVTVSS”, the “polyreactivity (PSR sort gate)” value is given as “low polyreactivity”.

Turning to “QVQLVESGGGLVQAGGSLRLSCAASGRISASYAMGWYRQAPGKEREWVAAITGSGGSTYYADSVKGRFTISRDNAQNTVYLQMNSLKPEDTGVYYCAAEPVLSVFFEFDSWGQGTQVTVSS”, the “polyreactivity (PSR sort gate)” value is recorded as “low polyreactivity”.

As to “QVQLVESGGGLVQAGGSLRLSCAASGRISFRIRWDGIDRRLGKKGSWLPLLTNTGSTNYADSVKGRFTISRDNAKNTVYLQMNSLKPEDTAVYYCNADQTGGSSYPAYFEYDYWGQGTQVTVSS”, the “polyreactivity (PSR sort gate)” value is listed as “low polyreactivity”. Then “QVQLVESGGGLVQAGGSLRLSCAASGRISGFYTMGWYRQAPGKERELVATITRSGSRTYYADSVKGRFTISRDNAKNTVYLQMNSLKPEDTAVYYCARSQAVYDGWFAKFGYWGQGTQVTVSS”, with “low polyreactivity”.

With “QVQLVESGGGLVQAGGSLRLSCAASGRISGLYAMGWSRQAPGKEWELVADSTYYADSVKGRFTISRDNAKNTVYLQMNSLKEEDTAVYYCAAVGGGTSTYSGDYWGQGTQVTVSS”, the “polyreactivity (PSR sort gate)” value is on record as “high polyreactivity”.
